This is an account of results in patent US20140087995A1 (published 2014).

Numbered stars: 1 amine (or outer) side, 2 acyl side, 3 side chain; on linkers, the order of the positions; unused ones are H or OH. Bridge positions count the residues as written; N and C are the ends. Side chains are listed from the residue outwards. Ends that are not written are not given here. * marks the point of attachment. C20 diacid = O=C(O)CCCCCCCCCCCCCCCCCCC(=O)*; γGlu = O=C(O)[C@H](CCC(=O)[*:2])N[*:1]; AEEA = NCCOCCOCC(=O)O

One may read the IC50 as the concentration that inhibits the measured activity by half.

First the molecules themselves.
T1: human calcitonin receptor (human, UniProt P30988 25-474)
T1 construct: whole, on cells; also called hCTR; hCT
T1 sequence (looked up): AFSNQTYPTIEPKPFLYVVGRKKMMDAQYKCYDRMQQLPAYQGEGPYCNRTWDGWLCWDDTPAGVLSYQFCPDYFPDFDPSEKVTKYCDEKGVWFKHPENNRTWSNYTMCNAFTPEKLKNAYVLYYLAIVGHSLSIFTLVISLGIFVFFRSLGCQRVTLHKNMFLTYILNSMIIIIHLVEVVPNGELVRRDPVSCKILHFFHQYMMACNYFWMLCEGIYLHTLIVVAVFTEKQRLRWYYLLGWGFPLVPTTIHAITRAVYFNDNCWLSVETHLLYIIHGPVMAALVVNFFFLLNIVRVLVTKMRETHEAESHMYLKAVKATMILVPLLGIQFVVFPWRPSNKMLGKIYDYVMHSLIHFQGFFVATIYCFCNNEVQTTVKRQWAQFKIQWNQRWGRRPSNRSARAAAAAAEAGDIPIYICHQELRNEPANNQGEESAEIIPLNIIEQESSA

B1: N^ε1-[(4S)-4-carboxy-4-[[(4S)-4-carboxy-4-(19-carboxynonadecanoylamino)butanoyl]amino]butanoyl]-[Asp14,Arg17,Pro21,Pro26,Asp35]-h-amylin (peptide)
peptide: K([γGlu-γGlu-C20 diacid])CNTATCATQRLADFLRHSSPNFGAPLSSTNVGSDTY-NH2
modifications: disulfide 2-7; N-terminus assumed
SMILES: CC(C)C[C@H](NC(=O)[C@H](CCCNC(=N)N)NC(=O)[C@H](CCC(N)=O)NC(=O)[C@@H](NC(=O)[C@H](C)NC(=O)[C@@H]1CSSC[C@H](NC(=O)[C@@H](N)CCCCNC(=O)CC[C@H](NC(=O)CC[C@H](NC(=O)CCCCCCCCCCCCCCCCCCC(=O)O)C(=O)O)C(=O)O)C(=O)N[C@@H](CC(N)=O)C(=O)N[C@@H]([C@@H](C)O)C(=O)N[C@@H](C)C(=O)N[C@@H]([C@@H](C)O)C(=O)N1)[C@@H](C)O)C(=O)N[C@@H](C)C(=O)N[C@@H](CC(=O)O)C(=O)N[C@@H](Cc1ccccc1)C(=O)N[C@@H](CC(C)C)C(=O)N[C@@H](CCCNC(=N)N)C(=O)N[C@@H](Cc1c[nH]cn1)C(=O)N[C@@H](CO)C(=O)N[C@@H](CO)C(=O)N1CCC[C@H]1C(=O)N[C@@H](CC(N)=O)C(=O)N[C@@H](Cc1ccccc1)C(=O)NCC(=O)N[C@@H](C)C(=O)N1CCC[C@H]1C(=O)N[C@@H](CC(C)C)C(=O)N[C@@H](CO)C(=O)N[C@@H](CO)C(=O)N[C@H](C(=O)N[C@@H](CC(N)=O)C(=O)N[C@H](C(=O)NCC(=O)N[C@@H](CO)C(=O)N[C@@H](CC(=O)O)C(=O)N[C@H](C(=O)N[C@@H](Cc1ccc(O)cc1)C(N)=O)[C@@H](C)O)C(C)C)[C@@H](C)O
notes: also called compound 1
B2: N^ε1-[(4S)-4-carboxy-4-[[(4S)-4-carboxy-4-(19-carboxynonadecanoylamino)butanoyl]amino]butanoyl]-[Asp14,Arg17,Pro21,Pro27,Asp35]-h-amylin (peptide)
peptide: K([γGlu-γGlu-C20 diacid])CNTATCATQRLADFLRHSSPNFGAIPSSTNVGSDTY-NH2
modifications: disulfide 2-7; N-terminus assumed
SMILES: CC[C@H](C)[C@H](NC(=O)[C@H](C)NC(=O)CNC(=O)[C@H](Cc1ccccc1)NC(=O)[C@H](CC(N)=O)NC(=O)[C@@H]1CCCN1C(=O)[C@H](CO)NC(=O)[C@H](CO)NC(=O)[C@H](Cc1c[nH]cn1)NC(=O)[C@H](CCCNC(=N)N)NC(=O)[C@H](CC(C)C)NC(=O)[C@H](Cc1ccccc1)NC(=O)[C@H](CC(=O)O)NC(=O)[C@H](C)NC(=O)[C@H](CC(C)C)NC(=O)[C@H](CCCNC(=N)N)NC(=O)[C@H](CCC(N)=O)NC(=O)[C@@H](NC(=O)[C@H](C)NC(=O)[C@@H]1CSSC[C@H](NC(=O)[C@@H](N)CCCCNC(=O)CC[C@H](NC(=O)CC[C@H](NC(=O)CCCCCCCCCCCCCCCCCCC(=O)O)C(=O)O)C(=O)O)C(=O)N[C@@H](CC(N)=O)C(=O)N[C@@H]([C@@H](C)O)C(=O)N[C@@H](C)C(=O)N[C@@H]([C@@H](C)O)C(=O)N1)[C@@H](C)O)C(=O)N1CCC[C@H]1C(=O)N[C@@H](CO)C(=O)N[C@@H](CO)C(=O)N[C@H](C(=O)N[C@@H](CC(N)=O)C(=O)N[C@H](C(=O)NCC(=O)N[C@@H](CO)C(=O)N[C@@H](CC(=O)O)C(=O)N[C@H](C(=O)N[C@@H](Cc1ccc(O)cc1)C(N)=O)[C@@H](C)O)C(C)C)[C@@H](C)O
notes: also called compound 2
B3: N^ε1N^ε1-[(4S)-4-carboxy-4-(19-carboxynonadecanoylamino)butanoyl]-[His14,Arg17,Pro21,Pro27,Pro34]-h-amylin (peptide)
peptide: K([γGlu-C20 diacid])CNTATCATQRLAHFLRHSSPNFGAIPSSTNVGPNTY-NH2
modifications: disulfide 2-7; N-terminus assumed
SMILES: CC[C@H](C)[C@H](NC(=O)[C@H](C)NC(=O)CNC(=O)[C@H](Cc1ccccc1)NC(=O)[C@H](CC(N)=O)NC(=O)[C@@H]1CCCN1C(=O)[C@H](CO)NC(=O)[C@H](CO)NC(=O)[C@H](Cc1c[nH]cn1)NC(=O)[C@H](CCCNC(=N)N)NC(=O)[C@H](CC(C)C)NC(=O)[C@H](Cc1ccccc1)NC(=O)[C@H](Cc1c[nH]cn1)NC(=O)[C@H](C)NC(=O)[C@H](CC(C)C)NC(=O)[C@H](CCCNC(=N)N)NC(=O)[C@H](CCC(N)=O)NC(=O)[C@@H](NC(=O)[C@H](C)NC(=O)[C@@H]1CSSC[C@H](NC(=O)[C@@H](N)CCCCNC(=O)CC[C@H](NC(=O)CCCCCCCCCCCCCCCCCCC(=O)O)C(=O)O)C(=O)N[C@@H](CC(N)=O)C(=O)N[C@@H]([C@@H](C)O)C(=O)N[C@@H](C)C(=O)N[C@@H]([C@@H](C)O)C(=O)N1)[C@@H](C)O)C(=O)N1CCC[C@H]1C(=O)N[C@@H](CO)C(=O)N[C@@H](CO)C(=O)N[C@H](C(=O)N[C@@H](CC(N)=O)C(=O)N[C@H](C(=O)NCC(=O)N1CCC[C@H]1C(=O)N[C@@H](CC(N)=O)C(=O)N[C@H](C(=O)N[C@@H](Cc1ccc(O)cc1)C(N)=O)[C@@H](C)O)C(C)C)[C@@H](C)O
notes: also called compound 67
B4: N^ε1-[(4S)-4-carboxy-4-[[(4S)-4-carboxy-4-(19-carboxynonadecanoylamino)butanoyl]amino]butanoyl]-[Asp14,Arg17,Pro21,Pro27,Arg35]-h-amylin (peptide)
peptide: K([γGlu-γGlu-C20 diacid])CNTATCATQRLADFLRHSSPNFGAIPSSTNVGSRTY-NH2
modifications: disulfide 2-7; N-terminus assumed
SMILES: CC[C@H](C)[C@H](NC(=O)[C@H](C)NC(=O)CNC(=O)[C@H](Cc1ccccc1)NC(=O)[C@H](CC(N)=O)NC(=O)[C@@H]1CCCN1C(=O)[C@H](CO)NC(=O)[C@H](CO)NC(=O)[C@H](Cc1c[nH]cn1)NC(=O)[C@H](CCCNC(=N)N)NC(=O)[C@H](CC(C)C)NC(=O)[C@H](Cc1ccccc1)NC(=O)[C@H](CC(=O)O)NC(=O)[C@H](C)NC(=O)[C@H](CC(C)C)NC(=O)[C@H](CCCNC(=N)N)NC(=O)[C@H](CCC(N)=O)NC(=O)[C@@H](NC(=O)[C@H](C)NC(=O)[C@@H]1CSSC[C@H](NC(=O)[C@@H](N)CCCCNC(=O)CC[C@H](NC(=O)CC[C@H](NC(=O)CCCCCCCCCCCCCCCCCCC(=O)O)C(=O)O)C(=O)O)C(=O)N[C@@H](CC(N)=O)C(=O)N[C@@H]([C@@H](C)O)C(=O)N[C@@H](C)C(=O)N[C@@H]([C@@H](C)O)C(=O)N1)[C@@H](C)O)C(=O)N1CCC[C@H]1C(=O)N[C@@H](CO)C(=O)N[C@@H](CO)C(=O)N[C@H](C(=O)N[C@@H](CC(N)=O)C(=O)N[C@H](C(=O)NCC(=O)N[C@@H](CO)C(=O)N[C@@H](CCCNC(=N)N)C(=O)N[C@H](C(=O)N[C@@H](Cc1ccc(O)cc1)C(N)=O)[C@@H](C)O)C(C)C)[C@@H](C)O
notes: also called compound 52
B5: N^ε1-[2-[2-[2-[[(4S)-4-carboxy-4-(19-carboxynonadecanoylamino)butanoyl]amino]ethoxy]ethoxy]acetyl]-[Arg17,Pro21,Pro27]-h-amylin (peptide)
peptide: K([AEEA-γGlu-C20 diacid])CNTATCATQRLANFLRHSSPNFGAIPSSTNVGSNTY-NH2
modifications: disulfide 2-7; N-terminus assumed
SMILES: CC[C@H](C)[C@H](NC(=O)[C@H](C)NC(=O)CNC(=O)[C@H](Cc1ccccc1)NC(=O)[C@H](CC(N)=O)NC(=O)[C@@H]1CCCN1C(=O)[C@H](CO)NC(=O)[C@H](CO)NC(=O)[C@H](Cc1c[nH]cn1)NC(=O)[C@H](CCCNC(=N)N)NC(=O)[C@H](CC(C)C)NC(=O)[C@H](Cc1ccccc1)NC(=O)[C@H](CC(N)=O)NC(=O)[C@H](C)NC(=O)[C@H](CC(C)C)NC(=O)[C@H](CCCNC(=N)N)NC(=O)[C@H](CCC(N)=O)NC(=O)[C@@H](NC(=O)[C@H](C)NC(=O)[C@@H]1CSSC[C@H](NC(=O)[C@@H](N)CCCCNC(=O)COCCOCCNC(=O)CC[C@H](NC(=O)CCCCCCCCCCCCCCCCCCC(=O)O)C(=O)O)C(=O)N[C@@H](CC(N)=O)C(=O)N[C@@H]([C@@H](C)O)C(=O)N[C@@H](C)C(=O)N[C@@H]([C@@H](C)O)C(=O)N1)[C@@H](C)O)C(=O)N1CCC[C@H]1C(=O)N[C@@H](CO)C(=O)N[C@@H](CO)C(=O)N[C@H](C(=O)N[C@@H](CC(N)=O)C(=O)N[C@H](C(=O)NCC(=O)N[C@@H](CO)C(=O)N[C@@H](CC(N)=O)C(=O)N[C@H](C(=O)N[C@@H](Cc1ccc(O)cc1)C(N)=O)[C@@H](C)O)C(C)C)[C@@H](C)O
notes: also called compound 41
B6: N^α1-[(4S)-4-carboxy-4-(19-carboxynonadecanoylamino)butanoyl]-[Glu14,Arg17,Pro21,Pro25,Pro28,Pro29]-h-amylin (peptide)
peptide: {C20 diacid-γGlu}-KCNTATCATQRLAEFLRHSSPNFGPILPPTNVGSNTY-NH2
modifications: disulfide 2-7
SMILES: CC[C@H](C)[C@H](NC(=O)[C@@H]1CCCN1C(=O)CNC(=O)[C@H](Cc1ccccc1)NC(=O)[C@H](CC(N)=O)NC(=O)[C@@H]1CCCN1C(=O)[C@H](CO)NC(=O)[C@H](CO)NC(=O)[C@H](Cc1c[nH]cn1)NC(=O)[C@H](CCCNC(=N)N)NC(=O)[C@H](CC(C)C)NC(=O)[C@H](Cc1ccccc1)NC(=O)[C@H](CCC(=O)O)NC(=O)[C@H](C)NC(=O)[C@H](CC(C)C)NC(=O)[C@H](CCCNC(=N)N)NC(=O)[C@H](CCC(N)=O)NC(=O)[C@@H](NC(=O)[C@H](C)NC(=O)[C@@H]1CSSC[C@H](NC(=O)[C@H](CCCCN)NC(=O)CC[C@H](NC(=O)CCCCCCCCCCCCCCCCCCC(=O)O)C(=O)O)C(=O)N[C@@H](CC(N)=O)C(=O)N[C@@H]([C@@H](C)O)C(=O)N[C@@H](C)C(=O)N[C@@H]([C@@H](C)O)C(=O)N1)[C@@H](C)O)C(=O)N[C@@H](CC(C)C)C(=O)N1CCC[C@H]1C(=O)N1CCC[C@H]1C(=O)N[C@H](C(=O)N[C@@H](CC(N)=O)C(=O)N[C@H](C(=O)NCC(=O)N[C@@H](CO)C(=O)N[C@@H](CC(N)=O)C(=O)N[C@H](C(=O)N[C@@H](Cc1ccc(O)cc1)C(N)=O)[C@@H](C)O)C(C)C)[C@@H](C)O
notes: also called compound 6
B7: N^α1-[2-[2-[2-[[2-[2-[2-[[(4S)-4-carboxy-4-(19-carboxynonadecanoylamino)butanoyl]amino]ethoxy]ethoxy]acetyl]amino]ethoxy]ethoxy]acetyl]-[Arg17,Pro21,Pro27]-h-am … (peptide)
peptide: KCNTATCATQRLANFLRHSSPNFGAIPSSTNVGSNTY
modifications: C20 diacid-gGlu-2xOEG on alpha amino group of N-terminal Lys 1; disulfide Cys2-Cys7; C-terminal amide (as human amylin)
notes: also called compound 24

In this experiment the target is T1, human calcitonin receptor. Nature of the experiment: SPA competition with 125I-calcitonin, membranes of BHK hCTR cells (Assay VII). The method, boiled down: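 BHK hCTR membranes 35 ng/μL + SPA beads 0.05 mg/well; buffer 50 mM Hepes pH 7.4, 1 mM CaCl2, 5 mM MgCl₂, 0.1% OA, 0.02% Tween20. 120 min, 25° C., shaking. Scintillation count; IC50 by one-site binding competition.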
For B1, the IC50 was 32.5 nM.

Consider B2, for which the IC50 is 19.5 nM. With B3, the IC50 is 4.63 nM.

Consider B4, for which the IC50 was determined as 56.9 nM. With B5 the figure was 21.3 nM. The result for B6 reads 19.9 nM; that for B7, 102 nM.
